Literature values, collected in patent EP4803095A2, “FORMULATIONS OF GLUCAGON-LIKE-PEPTIDE-2 (GLP-2) ANALOGUES” (Zealand Pharma A/S, priority 2018, dated 2026).
Like-named read-outs stand apart in the source and are kept apart here.

Details: for half-life in humans: background art

Substance	half-life in humans	half-life in humans (listed as native GLP-2)	half-life (in vivo)
GLP-2 [3-33]: truncated GLP-2 [3-33] (DGSFSDEMNTILDNLAARDFINWLIQTKITD; Glucagon-like peptide 2; UniProt P01275 148-178, looked up, fragment)	~27 min	–	–
Hy-His-Ala-Asp-Gly-Ser-Phe-Ser-Asp-Glu-Met-Asn-Thr-Ile-Leu-Asp-Asn-Leu-Ala-Ala-Arg-Asp-Phe-Ile-Asn-Trp-Leu-Ile-Gln-Thr-Lys-Ile-Thr-Asp-OH [GLP-2 [1-33]]	around 7 minutes	seven	–
teduglutide: GLP-2 analogue containing Gly substitution at position 2	–	–	about two
